The record followed here is paper PMC5721652, “Nanobodies targeting conserved epitopes on the major outer membrane protein of Campylobacter as potential tools for control of Campylobacter colonization” (Veterinary Research, 2017).

The chains are these.
B1: Nb63, His-tagged (VHH)
VHH: QVQLQESGGGLVQPGGSLRLSCVASGSTFAINVMGWYRRAPGKQRELVATVTSGSTTYSRVRSSDTTYADSVKGRFTISRDNAKNMVYLQMNSLKPEDTAVYYCNARTRNTIATSDGMDYWGKGTQVTVSS
notes: One of the six nanobodies with less broad specificity; its name is printed only in the legend of Additional file 5; also called anti-Campylobacter nanobody; not shown: His-tag, C-terminal, kept
B2: Nb34, His-tagged (VHH)
VHH: QVQLQESGGGLVQAGGSLRLSCAASGRTSSSYAMGWFRQAPGKEREFVTAISWNGSKAYYSDSVKGRFTISRDNAKNTVYLQMNSLKPEDTAVYYCAQGAYRVVADPGEYDYWGQGTQVTVSS
notes: One of the six nanobodies with less broad specificity; also called anti-Campylobacter nanobody; not shown: His-tag, C-terminal, kept
B3: Nb48, His-tagged (VHH)
VHH: QVQLQESGGGSVQAGESLRLACAASGSILSINIMRWYRQAPGKQRELVATIGRSGNTDLADFAKGRFTGSRDNGKNTVYLQMNNLKPEDTAVYYCNALLTTLSAQTGVYWGQGTQVTVSS
notes: as for B1
B4: Nb45, His-tagged (VHH)
VHH: QVQLQESGGGLVQAGGSLRLACVASSTIFSINNMAWYRQAPGKQRELVARITAGGNTNYADSVKGRFTISKDKGKNTVRLQMNSLKPEDTGVYYCKCGGCGTPYSLSEDYWGQGTQVTVSS
notes: as for B2
B5: Nb32, His-tagged (VHH)
VHH: QVQLQESGGGLVQAGDSLRLSCAASGGTFSNYVLGWFRQAPGKEREFVAAIRWSGERTYYADSVKGRFTISSDNAKYRQVTVYLEMNSLKPEDTAVYYCAARAPNYYSDSQPPVTLSEYKVWGQGTQVTVSS
notes: as for B2
B6: Nb15, His-tagged (VHH)
VHH: QVQLQESGGGLVQPGGSLRLSCAASGRTFRSYDMGWFRQAPGKEREFVAASAWSAGRTIYKNSVKGRFTISRDNTKDTMYLQMNDLKPEDTAVYFCAADRNPPPIYNEFYYYRASAYDYWGQGTQVTVSS
notes: as for B1
B7: Nb63, strep-tagged (VHH)
VHH: QVQLQESGGGLVQPGGSLRLSCVASGSTFAINVMGWYRRAPGKQRELVATVTSGSTTYSRVRSSDTTYADSVKGRFTISRDNAKNMVYLQMNSLKPEDTAVYYCNARTRNTIATSDGMDYWGKGTQVTVSS
notes: as the VHH of m13; also called strep-tagged Nb63; source: E. coli, purified (StrepTrap HP); not shown: strep-tag, C-terminal, kept
B8: Nb24, strep-tagged (VHH)
VHH: QVQLQESGGGLVQPGGSLRLSCAASGRTFSRFSDNYVMGWFRQAPGKEREVVGAIRWSVASTYYADFVKGRFTISRDSAMNTMYLQMNNLKPEDTAVYYCATKFSGPINGGQTSYNYWGQGTQVTVSS
notes: as the VHH of m5; also called strep-tagged Nb24; source: E. coli, purified (StrepTrap HP); not shown: strep-tag, C-terminal, kept
B9: Nb34, strep-tagged (VHH)
VHH: QVQLQESGGGLVQAGGSLRLSCAASGRTSSSYAMGWFRQAPGKEREFVTAISWNGSKAYYSDSVKGRFTISRDNAKNTVYLQMNSLKPEDTAVYYCAQGAYRVVADPGEYDYWGQGTQVTVSS
notes: as the VHH of m10; also called strep-tagged Nb34; source: E. coli, purified (StrepTrap HP); not shown: strep-tag, C-terminal, kept
B10: Nb49, strep-tagged (VHH)
VHH: QVQLQESGGGLVQPGWSLRLSCAASSIFEINAMGWYRQPPGKQRERVATITDGFGTNYADSVKGRFTISRDNAKNTVYLQMNSLRPEDTAVYYCSAQRTVPYKMTYWGQGTQVTVSS
notes: as the VHH of m6; also called strep-tagged Nb49; source: E. coli, purified (StrepTrap HP); not shown: strep-tag, C-terminal, kept
B11: Nb23, strep-tagged (VHH)
VHH: QVQLQESGGGLVQPGGSLRLSCAASGTIDNFNGMGWYRQAPGKQREWLARITMNGRTIYAESVEGRFTISRDKVKNTLALQMNSLKPEDTAVYYCNARGVLTPRGIHDYWGQGTQVTVSS
notes: as the VHH of m4; also called strep-tagged Nb23; source: E. coli, purified (StrepTrap HP); not shown: strep-tag, C-terminal, kept
B12: Nb48, strep-tagged (VHH)
VHH: QVQLQESGGGSVQAGESLRLACAASGSILSINIMRWYRQAPGKQRELVATIGRSGNTDLADFAKGRFTGSRDNGKNTVYLQMNNLKPEDTAVYYCNALLTTLSAQTGVYWGQGTQVTVSS
notes: as the VHH of m12; also called strep-tagged Nb48; source: E. coli, purified (StrepTrap HP); not shown: strep-tag, C-terminal, kept
B13: Nb45, strep-tagged (VHH)
VHH: QVQLQESGGGLVQAGGSLRLACVASSTIFSINNMAWYRQAPGKQRELVARITAGGNTNYADSVKGRFTISKDKGKNTVRLQMNSLKPEDTGVYYCKCGGCGTPYSLSEDYWGQGTQVTVSS
notes: as the VHH of m11; also called strep-tagged Nb45; source: E. coli, purified (StrepTrap HP); not shown: strep-tag, C-terminal, kept
B14: Nb5, strep-tagged (VHH)
VHH: QVQLQESGGGLVQAGGSLRLSCAASGTIISLNSMGWYRQAPGKQRELVAALTSGGTTNYADSVKGRFTISRVNAKNTVYLQMNSLKPEDTAVYYCNAKLITTAQGMVLASWGQGTQVTVSS
notes: as the VHH of m2; the printed oligo encodes the tag directly after the end of the nanobody; also called strep-tagged Nb5; source: E. coli, purified (StrepTrap HP); not shown: strep-tag, C-terminal, kept
B15: Nb32, strep-tagged (VHH)
VHH: QVQLQESGGGLVQAGDSLRLSCAASGGTFSNYVLGWFRQAPGKEREFVAAIRWSGERTYYADSVKGRFTISSDNAKYRQVTVYLEMNSLKPEDTAVYYCAARAPNYYSDSQPPVTLSEYKVWGQGTQVTVSS
notes: as the VHH of m9; also called strep-tagged Nb32; source: E. coli, purified (StrepTrap HP); not shown: strep-tag, C-terminal, kept
B16: Nb15, strep-tagged (VHH)
VHH: QVQLQESGGGLVQPGGSLRLSCAASGRTFRSYDMGWFRQAPGKEREFVAASAWSAGRTIYKNSVKGRFTISRDNTKDTMYLQMNDLKPEDTAVYFCAADRNPPPIYNEFYYYRASAYDYWGQGTQVTVSS
notes: as the VHH of m8; also called strep-tagged Nb15; source: E. coli, purified (StrepTrap HP); not shown: strep-tag, C-terminal, kept
B17: Nb84, fluorescently labelled (VHH)
VHH: QVQLQESGGGLVQAGGSLRLSCKASGTIISINNMGWYRRSPGKERDMVARIFSSGTINYTDSVKGRFTISRDNAKNTVYLEMNSLKPEDTAIYYCNARLTTTAMGTIPNSWGQGTQVTVSS
notes: as the VHH of m7; probably the C-terminally His-tagged one; also called fluorescently labelled Nb84; labelled Nb84; source: E. coli, purified; labelled with Dylight 650 NHS Ester
B18: Nb22, fluorescently labelled (VHH)
VHH: QVQLQESGGGLVQPGGSLRLSCAVSRTIFNFNNMGWYRQPPGKPRELVARITMNGRTDYADPVKGRFTISRDSAKNTLALQMNDLKGDDTAVYYCAARGAVRTGNLMPTDYWGQGTQVTVSS
notes: as the VHH of m3; probably the C-terminally His-tagged one; also called fluorescently labelled Nb22; source: E. coli, purified; labelled with Dylight 650 NHS Ester
B19: Nb24, His-tagged (VHH)
VHH: QVQLQESGGGLVQPGGSLRLSCAASGRTFSRFSDNYVMGWFRQAPGKEREVVGAIRWSVASTYYADFVKGRFTISRDSAMNTMYLQMNNLKPEDTAVYYCATKFSGPINGGQTSYNYWGQGTQVTVSS
notes: Cloned in pHen6C; one of the six nanobodies with broad specificity; also called anti-Campylobacter nanobody; not shown: His-tag, C-terminal, kept
B20: Nb49, His-tagged (VHH)
VHH: QVQLQESGGGLVQPGWSLRLSCAASSIFEINAMGWYRQPPGKQRERVATITDGFGTNYADSVKGRFTISRDNAKNTVYLQMNSLRPEDTAVYYCSAQRTVPYKMTYWGQGTQVTVSS
notes: as for B19
B21: Nb23, His-tagged (VHH)
VHH: QVQLQESGGGLVQPGGSLRLSCAASGTIDNFNGMGWYRQAPGKQREWLARITMNGRTIYAESVEGRFTISRDKVKNTLALQMNSLKPEDTAVYYCNARGVLTPRGIHDYWGQGTQVTVSS
notes: as for B19
B22: Nb5, His-tagged (VHH)
VHH: QVQLQESGGGLVQAGGSLRLSCAASGTIISLNSMGWYRQAPGKQRELVAALTSGGTTNYADSVKGRFTISRVNAKNTVYLQMNSLKPEDTAVYYCNAKLITTAQGMVLASWGQGTQVTVSS
notes: as for B19

For the first test, the target named is T1, major outer membrane protein (MOMP) of Campylobacter jejuni KC40 (Campylobacter jejuni KC40 (stand-in: …, UniProt P80672, strain)).
T1 construct: major outer membrane protein (MOMP, porA) of C. jejuni strain KC40; the printed entry P80672 is that of strain NCTC 11168, to which the peptides of the pull-down matched; The legends call the purified protein a MOMP monomer; the introduction describes MOMP as a trimeric porin; Kept in 0.6% octyl-POE after purification; also called purified MOMP monomer; native MOMP; source: purified from C. …
As to the kind of experiment: ELISA; purified MOMP coated at 1 µg/mL; His-tagged nanobody at 50 µg/mL, or tenfold serial dilutions of His-tagged Nb84 (saturation binding); detected with anti-Histidine tag antibody. To be noted: both partners purified.
Turning to B1, the binding result is listed as “binds”.
In the case of B2, the binding result is recorded as “binds”.
Turning to B3, the binding result is “binds”.
In the case of B4, the binding result is on record as “binds”.
The same measure, in the same setting: to B5 belongs “binds”; to B6, “binds”.

The next test has as its target T1, major outer membrane protein (MOMP) of …. Description: ELISA; competition: MOMP coated at 1 µg/mL; serial dilutions of strep-tagged nanobody and a constant 5 x 10^-2 µg/mL of His-tagged Nb84 added simultaneously; bound His-tagged Nb84 detected with anti-Histidine tag antibody. To be noted: both partners purified. In general terms: In an ELISA, binding on a coated surface is turned into a signal by an enzyme label.
Take B7: the binding result is listed as “binds”.
Take B8: the binding result is recorded as “binds”.
As for B9, the binding result is recorded as “binds”.
For B10, the binding result is listed as “binds”.
With B11, the binding result was “binds”.
As for B12, the binding result was “binds”.
Turning to B13, the binding result is recorded as “binds”.
Consider B14, for which the binding result is “binds”.
Same read-out and setting: under B15 stands “binds”; under B16, “binds”.

For the next test the target is unchanged. Description: MST; saturation: Dylight 650 labelled nanobody constant at 32 nM, twofold serial dilutions of MOMP from 0.3 nM to 5.0 µM; 20 mM sodium phosphate pH 7.6, 150 mM NaCl, 0.6% octyl-POE. The note with it: both partners purified.
On to B17, for which binding was put at a Kd of 422 ± 159 nM.
Consider B18, for which the Kd (as a rule, the concentration at which binding is half-saturated) came to 118 ± 48 nM.

For another test the target is unchanged. As to the kind of experiment: far-Western, overlay or dot blot; purified MOMP run on a non-denaturing gel, transferred to PVDF, incubated with 5 µg/mL His-tagged nanobody for 1 h at 4 °C, detected with anti-Histidine tag antibody. The note with it: both partners purified.
As for B19, the binding result is “binds”.
In the case of B20, the binding result is reported as “binds”.
Consider B21, for which the binding result is “binds”.

A further test shares this target. As to the kind of experiment: pull-down; His-tagged nanobody (20 µL of 1.0 mg/mL) mixed with 500 µL outer membrane proteins of C. jejuni KC40 (1.2 mg/mL), 2 h at 4 °C, captured overnight at 4 °C on Co2+-coated Dynabeads; eluted band cut from a silver-stained gel and identified by LC-MS/MS. The note with it: one partner purified.
B22: the binding result is listed as “binds”.
